Measured values as given in patent US20230002496A1 (STAIDSON BEIJING BIOPHARMACEUTICALS, published 2023).
Where a chain is given by its changes, count along the chain named. One block for each binder: values may come before it.

Molecular target: T1, human GM-CSFRα, full length on cells (human, UniProt P15509 23-400)
T1 sequence: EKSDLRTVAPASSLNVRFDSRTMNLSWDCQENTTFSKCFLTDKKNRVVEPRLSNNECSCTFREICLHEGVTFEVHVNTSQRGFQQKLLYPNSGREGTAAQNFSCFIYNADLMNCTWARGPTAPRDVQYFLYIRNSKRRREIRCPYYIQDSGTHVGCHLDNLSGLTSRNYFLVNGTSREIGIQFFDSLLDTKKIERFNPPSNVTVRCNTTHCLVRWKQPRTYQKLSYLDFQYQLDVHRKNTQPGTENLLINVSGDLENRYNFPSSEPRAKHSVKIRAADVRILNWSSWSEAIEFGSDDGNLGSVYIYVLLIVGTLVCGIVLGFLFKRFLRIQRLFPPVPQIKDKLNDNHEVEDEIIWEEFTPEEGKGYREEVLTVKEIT
Experiment: cell-based or functional assay

B1: E35-scFv HT30L (scFv, V domains shown)
VH: QMQLVQSGAEVKKPGASVKVSCKVSGYTLLELSIHWVRQAPGKGLEWMGGFDPEDGETIYAQKFQGRVTMTGDTSTDTAYLELSSLRSEDTALYYCATGRYTSLATTYGFDYWGQGTLVTVSS
VL: EIVMTQSPATLSLSPGERATLSCRASQSVSSYLAWYQQKPGQAPRLLIYGASSRATGIPDRFSGSGSGTDFTLTISRLEPEDFAVYYCQQYDNWPYTFGQGTKLEIK
IC50, TF-1 cell proliferation: 0.181 µg/mL

B3: E35-scFv HT28N (scFv, V domains shown)
VH: B1 VH with T28N, L30T
VL: B1 VL
IC50, TF-1 cell proliferation: 0.17 µg/mL

B4: E35-scFv HT28V (scFv, V domains shown)
VH: B1 VH with T28V, L30T
VL: B1 VL
IC50, TF-1 cell proliferation: 0.08 µg/mL

B5: E35-scFv HT28C (scFv, V domains shown)
VH: B1 VH with T28C, L30T
VL: B1 VL
IC50, TF-1 cell proliferation: 0.12 µg/mL

B7: E35-scFv HT30K (scFv, V domains shown)
VH: B1 VH with L30K
VL: B1 VL
IC50, TF-1 cell proliferation: 0.325 µg/mL

B8: E35-scFv HT28L (scFv, V domains shown)
VH: B1 VH with T28L, L30T
VL: B1 VL
IC50, TF-1 cell proliferation: 0.1 µg/mL

B9: E35-scFv HT28E (scFv, V domains shown)
VH: B1 VH with T28E, L30T
VL: B1 VL
IC50, TF-1 cell proliferation: 0.091 µg/mL

B22: E35-scFv HT28W (scFv, V domains shown)
VH: B1 VH with T28W, L30T
VL: B1 VL
IC50, TF-1 cell proliferation: 0.11 µg/mL

B23: E35-scFv HT28P (scFv, V domains shown)
VH: B1 VH with T28P, L30T
VL: B1 VL
IC50, TF-1 cell proliferation: 0.093 µg/mL

B25: E35-scFv HT28A (scFv, V domains shown)
VH: B1 VH with T28A, L30T
VL: B1 VL
IC50, TF-1 cell proliferation: 0.13 µg/mL

B26: E35-scFv HT30Q (scFv, V domains shown)
VH: B1 VH with L30Q
VL: B1 VL
IC50, TF-1 cell proliferation: 0.192 µg/mL

B28: E35-scFv HT30A (scFv, V domains shown)
VH: B1 VH with L30A
VL: B1 VL
IC50, TF-1 cell proliferation: 0.215 µg/mL

B29: E35-scFv HT28H (scFv, V domains shown)
VH: B1 VH with T28H, L30T
VL: B1 VL
IC50, TF-1 cell proliferation: 0.06 µg/mL

B31: E35-scFv HT28S (scFv, V domains shown)
VH: B1 VH with T28S, L30T
VL: B1 VL
IC50, TF-1 cell proliferation: 0.11 µg/mL

B36: E35-scFv HT30G (scFv, V domains shown)
VH: B1 VH with L30G
VL: B1 VL
IC50, TF-1 cell proliferation: 0.199 µg/mL

B40: E35-scFv HT28G (scFv, V domains shown)
VH: B1 VH with T28G, L30T
VL: B1 VL
IC50, TF-1 cell proliferation: 0.16 µg/mL

B41: E35-scFv HT28M (scFv, V domains shown)
VH: B1 VH with T28M, L30T
VL: B1 VL
IC50, TF-1 cell proliferation: 0.11 µg/mL

B44: E35-scFv HT28K (scFv, V domains shown)
VH: B1 VH with T28K, L30T
VL: B1 VL
IC50, TF-1 cell proliferation: 0.217 µg/mL

Other lines, results leading:

IC50, TF-1 cell proliferation: 0.078 µg/mL
B2: E35-scFv LS26G (scFv, V domains shown)
VH: B1 VH with L30T
VL: B1 VL with S26G

IC50, TF-1 cell proliferation: 0.35 µg/mL
B6: E35-scFv HT30R (scFv, V domains shown)
VH: B1 VH with L30R
VL: B1 VL

IC50, TF-1 cell proliferation: 0.075 µg/mL
B10: E35-scFv LS26Q (scFv, V domains shown)
VH: B1 VH with L30T
VL: B1 VL with S26Q

IC50, TF-1 cell proliferation: 0.117 µg/mL
B11: E35-scFv LQ27R (scFv, V domains shown)
VH: B1 VH with L30T
VL: B1 VL with Q27R

IC50, TF-1 cell proliferation: 0.213 µg/mL
B12: E35-scFv HT30S (scFv, V domains shown)
VH: B1 VH with L30S
VL: B1 VL

IC50, TF-1 cell proliferation: 0.113 µg/mL
B13: E35-scFv LQ27F (scFv, V domains shown)
VH: B1 VH with L30T
VL: B1 VL with Q27F

IC50, TF-1 cell proliferation: 0.104 µg/mL
B14: E35-scFv LQ27A (scFv, V domains shown)
VH: B1 VH with L30T
VL: B1 VL with Q27A

IC50, TF-1 cell proliferation: 0.138 µg/mL
B15: E35-scFv LQ27S (scFv, V domains shown)
VH: B1 VH with L30T
VL: B1 VL with Q27S

IC50, TF-1 cell proliferation: 0.105 µg/mL
B16: E35-scFv LQ27I (scFv, V domains shown)
VH: B1 VH with L30T
VL: B1 VL with Q27I

IC50, TF-1 cell proliferation: 0.114 µg/mL
B17: E35-scFv LS26C (scFv, V domains shown)
VH: B1 VH with L30T
VL: B1 VL with S26C

IC50, TF-1 cell proliferation: 0.069 µg/mL
B18: E35-scFv LS26K (scFv, V domains shown)
VH: B1 VH with L30T
VL: B1 VL with S26K

IC50, TF-1 cell proliferation: 0.097 µg/mL
B19: E35-scFv LQ27P (scFv, V domains shown)
VH: B1 VH with L30T
VL: B1 VL with Q27P

IC50, TF-1 cell proliferation: 0.044 µg/mL
B20: E35-scFv LS26L (scFv, V domains shown)
VH: B1 VH with L30T
VL: B1 VL with S26L

IC50, TF-1 cell proliferation: 0.062 µg/mL
B21: E35-scFv LS26A (scFv, V domains shown)
VH: B1 VH with L30T
VL: B1 VL with S26A

IC50, TF-1 cell proliferation: 0.072 µg/mL
B24: E35-scFv LS26R (scFv, V domains shown)
VH: B1 VH with L30T
VL: B1 VL with S26R

IC50, TF-1 cell proliferation: 0.065 µg/mL
B27: E35-scFv LQ27Y (scFv, V domains shown)
VH: B1 VH with L30T
VL: B1 VL with Q27Y

IC50, TF-1 cell proliferation: 0.113 µg/mL
B30: E35-scFv LQ27T (scFv, V domains shown)
VH: B1 VH with L30T
VL: B1 VL with Q27T

IC50, TF-1 cell proliferation: 0.089 µg/mL
B32: E35-scFv LS26M (scFv, V domains shown)
VH: B1 VH with L30T
VL: B1 VL with S26M

IC50, TF-1 cell proliferation: 0.12 µg/mL
B33: E35-scFv LQ27V (scFv, V domains shown)
VH: B1 VH with L30T
VL: B1 VL with Q27V

IC50, TF-1 cell proliferation: 0.142 µg/mL
B34: E35-scFv LQ27C (scFv, V domains shown)
VH: B1 VH with L30T
VL: B1 VL with Q27C

IC50, TF-1 cell proliferation: 0.135 µg/mL
B35: E35-scFv LQ27E (scFv, V domains shown)
VH: B1 VH with L30T
VL: B1 VL with Q27E

IC50, TF-1 cell proliferation: 0.128 µg/mL
B37: E35-scFv LQ27L (scFv, V domains shown)
VH: B1 VH with L30T
VL: B1 VL with Q27L

IC50, TF-1 cell proliferation: 0.089 µg/mL
B38: E35-scFv LS26H (scFv, V domains shown)
VH: B1 VH with L30T
VL: B1 VL with S26H

IC50, TF-1 cell proliferation: 0.054 µg/mL
B39: E35-scFv LS26N (scFv, V domains shown)
VH: B1 VH with L30T
VL: B1 VL with S26N

IC50, TF-1 cell proliferation: 0.081 µg/mL
B42: E35-scFv LS26T (scFv, V domains shown)
VH: B1 VH with L30T
VL: B1 VL with S26T

IC50, TF-1 cell proliferation: 0.073 µg/mL
B43: E35-scFv LS26I (scFv, V domains shown)
VH: B1 VH with L30T
VL: B1 VL with S26I
